Reference: doi:10.1101/2025.01.07.631698
Like-named read-outs stand apart in the source and are kept apart here.

Legend:
[1] = biological target: microtubules polymerised from porcine tubulin (porcine) (UniProt P02550); assay: FRAP
[2] = biological target: microtubules polymerised from porcine tubulin (porcine) (UniProt P02550); assay: FRAP; remark: listed apart in the source

Anillin-GFP (full-length human anillin, isoform 2, 1087 amino acids) (from UniProt Q9NQW6-2 1-1087) (natural protein)
koff [1]: 0.26 s⁻¹
koff [2]: 1.07 s⁻¹
